Data as given in publication PMC3561454.

Molecular target: Csk (UniProt P41240)
Assay: p140Cap IP, Csk western blot
Conditions: reference: wild type, sites Y264,Y396

Substance: p140Cap (from UniProt Q9C0H9) Y264F/Y396F double mutant, FBS time course
- binding against the reference (FBS time course): lost

Substance: p140Cap (from UniProt Q9C0H9) Y264F/Y396F double mutant
- binding against the reference: lost
